The test addresses cysteine-free green-absorbing Proteorhodopsin. In words: cross-linking.

Consider “cysteine-free green-absorbing Proteorhodopsin (natural protein)”, for which the stoichiometry N – broadly, the number of molecules, sites or subunits per partner or assembly – came to 6.

These data come from PMC4374980.
